Reference: PMC2557009, “YB-1 promotes microtubule assembly in vitro through interaction with tubulin and microtubules” (BMC Biochemistry, 2008)

Target: the molecule itself
Assay: cross-linking; zero length cross-linker EDC (5 mM) / sulfo-NHS (12 mM); 1 μM tubulin and 0.3, 0.5, 0.8 or 1.2 μM YB-1, or each alone; 50 mM MES-KOH pH 6.8, 1 mM MgCl2, 1 mM EGTA, 0.5 mM GTP, 1 h at 30°C; SDS-PAGE, Coomassie and Western blot

B1: YB-1 (natural protein)
chain: not shown
notes: source: E. coli BL21(DE3), pET 3-1-YB-1 construct, purified (heparin-Sepharose, Sephacryl S-200)
- stoichiometry N: 2
